Columns and labels:
Test in all cases: primer extension with trap
Details in all cases: Primer extension: 50 mM Tris-HCl pH 8.0, 80 mM KCl, 6 mM MgCl2, 1 mM DTT, 0.1 mg/ml BSA, room temperature, 1 nM duplex; filter binding: Tris-HCl pH 8.0, 80 mM …
[1] = biological target: T1, Ty3 RT (Ty3 retrotransposon) (UniProt Q99315)
T1 sequence: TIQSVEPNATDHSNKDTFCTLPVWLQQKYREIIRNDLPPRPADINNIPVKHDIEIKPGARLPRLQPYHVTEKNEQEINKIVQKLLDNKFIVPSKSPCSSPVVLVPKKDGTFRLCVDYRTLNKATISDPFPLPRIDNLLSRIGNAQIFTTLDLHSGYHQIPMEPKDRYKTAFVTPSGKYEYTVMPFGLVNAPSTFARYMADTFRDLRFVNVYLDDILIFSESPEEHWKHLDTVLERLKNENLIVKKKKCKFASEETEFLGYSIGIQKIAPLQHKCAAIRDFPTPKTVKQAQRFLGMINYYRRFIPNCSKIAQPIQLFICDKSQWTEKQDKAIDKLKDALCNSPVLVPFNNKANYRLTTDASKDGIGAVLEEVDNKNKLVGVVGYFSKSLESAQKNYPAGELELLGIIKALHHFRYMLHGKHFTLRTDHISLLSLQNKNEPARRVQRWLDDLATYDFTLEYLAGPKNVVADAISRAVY

[2] = biological target: MuLV RT (Moloney murine leukemia virus) (UniProt P03355)
HIV RT (HIV) = HIV RT (HIV) (UniProt P04585+P04585)
[3] = biological target: T2, AMV RT (avian myeloblastosis virus) (UniProt Q83133+Q83133)
T2 sequence 1: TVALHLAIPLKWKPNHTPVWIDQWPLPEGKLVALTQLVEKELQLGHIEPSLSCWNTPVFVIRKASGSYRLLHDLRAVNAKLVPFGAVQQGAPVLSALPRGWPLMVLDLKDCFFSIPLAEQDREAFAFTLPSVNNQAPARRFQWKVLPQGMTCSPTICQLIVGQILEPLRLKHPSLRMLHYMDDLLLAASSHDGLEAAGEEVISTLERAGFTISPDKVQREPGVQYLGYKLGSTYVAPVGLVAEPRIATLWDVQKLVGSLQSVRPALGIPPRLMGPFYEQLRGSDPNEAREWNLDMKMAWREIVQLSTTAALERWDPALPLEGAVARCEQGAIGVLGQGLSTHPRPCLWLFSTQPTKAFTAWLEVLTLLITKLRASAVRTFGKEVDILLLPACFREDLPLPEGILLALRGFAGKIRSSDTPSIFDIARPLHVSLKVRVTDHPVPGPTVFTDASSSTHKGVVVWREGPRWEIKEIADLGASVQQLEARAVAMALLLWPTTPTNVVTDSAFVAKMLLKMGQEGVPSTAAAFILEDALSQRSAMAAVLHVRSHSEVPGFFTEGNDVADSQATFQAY
T2 sequence 2: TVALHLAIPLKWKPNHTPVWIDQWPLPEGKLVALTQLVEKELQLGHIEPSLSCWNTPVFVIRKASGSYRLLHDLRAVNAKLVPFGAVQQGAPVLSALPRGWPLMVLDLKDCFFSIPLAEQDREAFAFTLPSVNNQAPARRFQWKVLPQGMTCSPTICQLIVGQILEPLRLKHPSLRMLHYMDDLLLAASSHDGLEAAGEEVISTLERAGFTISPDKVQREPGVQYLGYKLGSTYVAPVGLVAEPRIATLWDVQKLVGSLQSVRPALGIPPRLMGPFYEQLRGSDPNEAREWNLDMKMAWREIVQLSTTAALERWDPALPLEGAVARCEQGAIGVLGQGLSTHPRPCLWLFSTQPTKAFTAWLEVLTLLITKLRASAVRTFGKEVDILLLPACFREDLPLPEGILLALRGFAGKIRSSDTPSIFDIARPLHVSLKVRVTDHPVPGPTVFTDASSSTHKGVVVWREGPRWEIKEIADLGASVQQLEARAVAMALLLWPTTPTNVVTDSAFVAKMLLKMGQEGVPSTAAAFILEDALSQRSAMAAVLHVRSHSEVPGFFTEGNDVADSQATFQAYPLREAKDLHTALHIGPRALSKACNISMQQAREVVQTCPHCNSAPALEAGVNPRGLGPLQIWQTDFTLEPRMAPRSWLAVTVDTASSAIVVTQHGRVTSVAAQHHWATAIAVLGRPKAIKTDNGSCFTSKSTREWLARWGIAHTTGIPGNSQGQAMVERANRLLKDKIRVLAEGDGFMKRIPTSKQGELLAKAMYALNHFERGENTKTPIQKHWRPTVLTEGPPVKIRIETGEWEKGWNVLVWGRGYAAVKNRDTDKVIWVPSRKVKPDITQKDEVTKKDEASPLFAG

For Random DNA, the Kd [1] was 62 nM, the Kd [2] was 116 nM and the Kd (HIV RT (HIV)) was 106 nM. The Kd [3] was 20 nM.

From article PMC3407194
